Experimental data published in patent US20100196265A1 (University of California, published 2010).

Tests used:
[1] = target: T1, HER3 extracellular domain (UniProt P21860 20-643, limits assumed); test: surface plasmon resonance (BIAcore), HER3 extracellular domain on the chip, ALM injected; concentrations not given
T1 construct: extracellular domain; also called ErbB3

[2] = target: T2, HER2/neu extracellular domain (UniProt P04626 23-652, limits assumed); test: surface plasmon resonance (BIAcore), HER2/neu extracellular domain on the chip, ALM injected; concentrations not given
T2 construct: extracellular domain; also called ErbB2

T1 sequence (P21860 20-643 limits assumed): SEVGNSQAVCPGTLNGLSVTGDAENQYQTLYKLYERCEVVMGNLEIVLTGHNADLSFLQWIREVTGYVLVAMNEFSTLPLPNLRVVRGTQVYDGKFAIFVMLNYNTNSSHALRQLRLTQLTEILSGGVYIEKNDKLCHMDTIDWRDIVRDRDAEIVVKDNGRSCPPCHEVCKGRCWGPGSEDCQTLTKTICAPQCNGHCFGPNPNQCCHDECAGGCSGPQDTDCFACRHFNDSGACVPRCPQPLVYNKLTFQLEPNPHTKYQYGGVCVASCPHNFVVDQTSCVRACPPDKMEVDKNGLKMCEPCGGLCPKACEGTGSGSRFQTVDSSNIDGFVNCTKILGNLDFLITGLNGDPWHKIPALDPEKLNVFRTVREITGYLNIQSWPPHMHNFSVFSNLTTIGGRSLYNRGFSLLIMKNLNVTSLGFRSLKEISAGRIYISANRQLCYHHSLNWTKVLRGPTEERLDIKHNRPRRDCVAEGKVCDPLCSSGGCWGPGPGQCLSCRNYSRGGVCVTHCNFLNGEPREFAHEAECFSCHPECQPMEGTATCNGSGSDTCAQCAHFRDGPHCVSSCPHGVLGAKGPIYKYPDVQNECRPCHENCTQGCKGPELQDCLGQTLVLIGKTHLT

B1: ALM (A5-ML3.9) bispecific scFv (bispecific antibody)
scFv: AMAQVQLVQSGGGLVKPGGSLRLSCAASGFSFNTYDMNWVRQAPGKGLEWVSSISSSSSYIYYADSVKGRFTISRDNAKNSLYLQMNSLRAEDTAVYYCARDGVATTPFDYWGQGTLVTVSSGGGGSGGGGSGGGGSQSVLTQPPSVSGAPGQRVTISCTGSSSNIGAGYDVHWYQQLPGTAPKLLIYGNSNRPSGVPDRFSGSKSGTSASLAITGLQAEDEADYYCQSYDSSLSALFGGGTKLTVLGNSGAGTSGSGASGEGSGSKLQVQLVQSGAEVKKPGESLKISCKGSGYSFTSYWIAWVRQMPGKGLEYMGLIYPGDSDTKYSPSFQGQVTISVDKSVSTAYLQWSSLKPSDSAVYFCARHDVGYCSSSNCAKWPEYFQHWGQGTLVTVSSGGGGSGGGGSGGGGSQSVLTQPPSVSAAPGQKVTISCSGSSSNIGNNYVSWYQQLPGTAPKLLIYDHTNRPAGVPDRFSGSKSGTSASLAISGFRSEDEADYYCASWDYTLSGWVFGGGTKLTVLGLEHHHHHH
notes: Expressed in E. coli TG1 from pUC/ALM and purified by IMAC and size exclusion; also called A5/Linker/ML3.9 bs-scFv; ALM proteins
[1]
  binding result: binds
[2]
  binding result: binds
